Source: article PMC1635243

Target: recombinant T2 domain of xNAP1 (Xenopus nucleosome assembly protein), residues 38-282, histidine tagged (Xenopus laevis)
Assay: AUC

## recombinant T2 domain of xNAP1 (Xenopus nucleosome assembly protein), residues 38-282, histidine tagged (domain or fragment)
  stoichiometry N: 12 to 16 subunits
